According to article PMC7188244:

What was measured:
[1] = target: HA-tagged SQSTM1-NUP214^FGmut fusion protein (human) (UniProt P35658); assay: co-IP; nuclear lysates of stably transduced MEFs; anti-HA antibody overnight at 4°C, Protein G Dynabeads; washes with 150 and 175 mM NaCl buffer; immunoblot with anti-Crm1 and anti-HA, Crm1 signal/HA signal quantified on LI-COR Odyssey; cells untreated or treated with LMB (10 nM, 2 hours)
[2] = target: HA-tagged SQSTM1-NUP214 fusion protein (human) (UniProt P35658); assay: as above

percent reduction of Crm1 binding against SQSTM1-NUP214 [1] | percent reduction of Crm1 binding by LMB (10 nM, 2 hours) [2] | percent reduction of Crm1 binding by LMB (10 nM, 2 hours) [1] | Substance
> 50% | 58% |  | Crm1 (chromosome region maintenance 1) (from UniProt Q6P5F9 1-1071) (natural protein)
 |  | 52% | Crm1 (chromosome region maintenance 1) (from UniProt Q6P5F9 1-1071)
